Here are results for 30 sequences from the nanobody polyreactivity screen of Harvey et al. (2022).

The data set can be described thus: yeast display, Sf9 membrane polyspecificity reagent, FACS + sequencing; frameworks hold sequencing errors. In short, it runs like this:
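After 36–48 hours of galactose induction, yeast (Saccharomyces cerevisiae BJ5465) displaying a synthetic nanobody library were stained at 4 °C for 1 hour with 10% biotinylated, detergent-solubilized Sf9 membrane reagent. Streptavidin microbeads enriched the stained cells before FACS sorting into low and high (top ~1%) gates on anti-HA and streptavidin fluorescence. Each clone's polyreactivity label reflects its gate of origin.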
Regarding “QVQLVESGGRLVQARGSLRLSCAASGRIFYDYAMGCYRQAPGKESELVAAISGSGGSTYYADSVKGRFTISRDNAKNTVYLQMNSLKPEDTAVYYCNRYTTRYYPGGDYWGQGTQVTVSS”, the “polyreactivity (PSR sort gate)” value is listed as “high polyreactivity”.

For the sequence “QVQLVESGGGLVQAGGSLRLSCAASGFTFGDYAMGWYRQAPGKEWELVAAISWSAGSTYYADSVKGRFTISRDNAKNTVYVQMNSLKPEDTAVYYCAADDSATIEDDYWGQGTQVTVSS”, the “polyreactivity (PSR sort gate)” value was “high polyreactivity”.

Consider “QVQLVESGGGLVQAGGSLRLSCAASGSIFVRNAMGWYRQAPGKERELVAAISRSGSSTYYADSVKGRFTISRDIAKNTVYLQMNSLKPEDTAVYYCAARRRYKMDYWGQGTQVTVSS”, for which the “polyreactivity (PSR sort gate)” value is “high polyreactivity”.

For “QVQLVESGAGLVQAGGSLRLSCAASGYIFGQNAMGWYRQAPGKERELVASISDGGSTYYADSVKGRFTISRDNAKNTVYLQMNSLKPEDTAVYYCAAGQDWGEKALGAWLFDYWGHGTQVTVSS”, the “polyreactivity (PSR sort gate)” value is “low polyreactivity”.

As for “QVQLVESGGGLVQAGGSLRLTCDASGYIFSKYAMGWYRQAPGKERELVAAISGSGGSTSYADSVKGRFTISRDNAKNTVYLQMYCLKPEDTAVYYCIARSRLQRGRMDYWGQGTQVTVSS”, the “polyreactivity (PSR sort gate)” value is listed as “high polyreactivity”.

As to “QVQLVESGGGSVQAGGSLRLSCAASGSTFGGNVMGWYRQAPGKERELVAAISGSGGSTYYADSVKGRFTISRDTAKNTVYFQMNSLKPVDTSVYYCNVESSQSSSGFDYWGQGTQVTVSS”, the “polyreactivity (PSR sort gate)” value was “low polyreactivity”.

With “QVQLVESGGGLVQAGGSLPLSCAASGYTFQRYAMGWYRQAPGKERELVAAITGAGGSTYYADSVKGRFTISRDNAKNTVYLQMNSLKPEDTAVYYCAARQYRRVIKHGYNYWGQGTQVTVSS”, the “polyreactivity (PSR sort gate)” value is listed as “high polyreactivity”.

For “QVQLVESGGGLVQAGGSLRLSCAASGRTFPGNAMGWYRQAPGKERELVAGISYRGGSTYYADSVKGRFTISRDYGKNTVYLQMNSLKPEDTAVYYCARDYSRHKGDYWGQGTQVNVSS”, the “polyreactivity (PSR sort gate)” value is recorded as “low polyreactivity”.

Consider “QVQLVESGGGLVQAGGSLRLSCAASGSTFRDNAMGWYRQAPGKEWELVAAITVIDGTTYYADSVKGRFTLSRDNAKNTVYLQMNSLKPEDTAVYYCAADTIWYEYYYWGQGTQVTVSS”, for which the “polyreactivity (PSR sort gate)” value is “low polyreactivity”.

As to “QVQLVESGGGLVQAGGSLRLSCAASGRILYRYAMGWYRQATGKERELVAAISWSGGSTYYADSVKGRFTISRDNAKNSVYLQMNSLKPEDTAVYYCAARYKRAYSRDYWGQGTQVTVSS”, the “polyreactivity (PSR sort gate)” value is recorded as “high polyreactivity”.

For the sequence “QVQLVESGGGLVQAGGTLRLSCAASGSIVQSYAMGWYRQAPGKERELVAAITERGGSTYYADSVKGRFTISRDNAKNTVYLQMNSLKPEDTAVYYCAAKAVGLGKSWRGDDYWGQGTQVTVSS”, the “polyreactivity (PSR sort gate)” value was “low polyreactivity”.

“QVQLVESGGGLVQAGGSLRLSCAASGSTFAQYVMGWYRQAPWKERELFAAISRGGGRTYYADSVKGRFTISRDNAKNTVYLQMNSLKPEDTAVYYCAAETLGVYDYESYNYYWGQGTQVTVSS”: the “polyreactivity (PSR sort gate)” value is recorded as “high polyreactivity”.

Consider “QVQLVESGGGLVQAGGSLRLSCAASGSTFDNYAMGWYRQAPGKERELVAAITTGVTTYYADSVKGRFTISRDNAKNTVYLQMISLKPEDTAVYYCAADYVSYSQARHEYGYWGQGTQVTVSS”, for which the “polyreactivity (PSR sort gate)” value is “low polyreactivity”.

Consider “QVQLVESGGGLVQAGGSLRLSCAASGFTFSQNAMGWYRQAAGKERELVAAITGDGGSTYYADSVKGRFTISRDNAKNTVFLQMNSLKPEDTAVYYCAADPSPYSAFGIYWFRYDYWGQGTQVTVSS”, for which the “polyreactivity (PSR sort gate)” value is “low polyreactivity”.

For the sequence “QVQLVESGGGLVQAGGSLRLSCAAYGSIIHANAMGWYRQAPGKERELVAAITGDGSTYYADSVKGRFTISRDNAKNTVYLQMNSLKPEDTAVYYCNAEYYSTYDSWGQGTQVTVSS”, the “polyreactivity (PSR sort gate)” value was “low polyreactivity”.

Take “QVQLVESGGGLVQAGGSLRLSCAASGGIFNYYAMGWYRQAPGKERELVAAISASGGSTYYADSVKGRFTISRDNAKNTVYLQMNSLKPEDTAVYYCAAGLPYGYGYDYWGQGTQVTVSS”: the “polyreactivity (PSR sort gate)” value is recorded as “low polyreactivity”.

As to “QVQLVESGGGLVQAGGSLRLSCAASGLIFGYYAMGWYRQAPGKERELVAVISYSGGSTYYADSVKGRFTITRDNAKNTVYLQMNSLNPEDTAVYYCNTYGAYYRHTKEYGYWGQGTQVTVSS”, the “polyreactivity (PSR sort gate)” value is reported as “high polyreactivity”.

Turning to “QVQLLESGGGLVQAGGSLRLRCAASGFTFRKYTMGWYRQAPGKERELVAAISSGVSTNYADSVKGRFTISRDNAKKTVYLQMNSLKAEDTAVYYCAARGGYYQGRYKYGYWGQGTQVTVSS”, the “polyreactivity (PSR sort gate)” value was “high polyreactivity”.

Regarding “QVQLVESGGGLVQAGGSLRLSCAASGRTYVYTMGWYRQAPGKERELVAAIRYSGGRTYYADSVKGRFTISRDNAMNTVYLQMNSLKPEDTAVYYCAARNYATGVRYDYWGQGTQVTVSS”, the “polyreactivity (PSR sort gate)” value was “high polyreactivity”.

With “QVWLQESGRGLLQACGSLRLSCAASGTISRDIFMGWYRQAPGKEREFVATIAQGGITNYADSVKGRFTISRDNAKNTVYLQMNSVKPGDTAVYFCAARDGNCYWFYYWGQGTQVTVSS”, the “polyreactivity (PSR sort gate)” value is listed as “high polyreactivity”.

As to “QVQLVESGGGLVQAGGSLRLSCAASGIIFPYYAMGWYRQAPGKERELVAGISSSGGITYADSVKGRFTISRDNAKNTVYLQMNSLKPEDTAVYYCAARYPARGTLYYWGQGTQVTVSS”, the “polyreactivity (PSR sort gate)” value was “low polyreactivity”.

Turning to “QVQLVESGGGLVQAGGSLRLSCAASGRTFVVNDMGWYRQAPGNDRELVAAINYNAGSTFYADSVKGRFTISRDNAKKTVYLQMNSLKPEATAVYYCATDVYGYVEYDYWGQGTQVTVSS”, the “polyreactivity (PSR sort gate)” value was “low polyreactivity”.

With “QVQLVESGGGLVQAGGSLRLSCAASGSTLNLYAMGWYRQAPGKEREVVAGITGGGSSTYYADSVKGRFTISRDNAKNTVYLQMNSLKPEDTAVYYCNVEPGYYYYRHWVAYSHGYGYWGQGTQVTVSS”, the “polyreactivity (PSR sort gate)” value is recorded as “low polyreactivity”.

With “QVKLVESGGGLVQAGRSLRLSCAASGFTFSANTMGWYRQAPGKERELVAAITRGGRTYYADSVKGRFTISRDNAKNTVYLQMNSLKPEDTAVYYCAKRATWYTVTREGYWGQGTQVTVTS”, the “polyreactivity (PSR sort gate)” value was “high polyreactivity”.

Turning to “QVQLVESGGGLVQAGGSLRLSCAASGRTLVKYAMGWYRQAPGKERELVAAISSGGGTYYADSVKGRFTISRDNAKNTVYLQMNSLKPEDTAVYYCATPYYRRYAAPGYDYWGQGTQVTVSS”, the “polyreactivity (PSR sort gate)” value is recorded as “low polyreactivity”.

As to “QVQLVESGGGLVQAGGSLRLSCAASGSIFLTNAMGWYRQAPGKEREFVAAIDWGGTITYYADSVKGRFTISRDNAKNTVYLQMNSLKPEDTAVYYCAADPTYPYGYWGQGTQVTVSS”, the “polyreactivity (PSR sort gate)” value is listed as “low polyreactivity”.

On to “QVQLVESGGGLVQAGGSLRLSCAASGRIFDNYAMGWYRQAPGKERELVAAITYIDSGTYYADSVKGRFTISRDNAKNTVYLQMNSLKPEDTAVYYCAVRLNSDSKRKTQKYGYWGQGTQVTVSS”, for which the “polyreactivity (PSR sort gate)” value was “low polyreactivity”.

For “QVQLVESGGGLVQAGGSLRLSCAASGRPFPGNAMGWYRPAPGKERELVAAISSSGGSTHYADSGKGRFTISRDTAKNTVYLQMNSLKPEDTAVYYCNARSIGYSYRYYDWGQGTQVTVSS”, the “polyreactivity (PSR sort gate)” value was “high polyreactivity”.

Consider “QVQLVESGGGIVQAGGSLRLSCAASGSTFYVNTMGWYRQAPGKERDLVAAISYTGGNTYYADSVKGRFTISRDNAKNTVYLQMNSLKPEDTAVYYCAARILYRGTGYPYRMNYWGQGTQVTVSS”, for which the “polyreactivity (PSR sort gate)” value is given as “high polyreactivity”.

Regarding “QVQLVESGGGLVQAGGSLRLSCAASGRILTSNAMGWYRKAPGKERELVAAISWSGGSTYYADSVKGRFTISRENAKNSVYLHMNRLKPEDTAGYYCAAPFTTTFDYWGQGTQVTVSS”, the “polyreactivity (PSR sort gate)” value is “low polyreactivity”.
